Patent publication US20220177587A1, “METHODS AND USES OF VARIANT CD80 FUSION PROTEINS AND RELATED CONSTRUCTS” (Alpine Immune Sciences, Inc., priority 2018, published 2022)
Like-named read-outs stand apart in the source and are kept apart here.

Tests used:
CD28 (human) [1] = target: CD28 (human) (UniProt P10747)
PD-L1 (human) [2] = target: PD-L1 (human) (UniProt Q9NZQ7); test: flow cytometry, CHO cells stably expressing PD-L1
CD28 (human) [3] = target: CD28 (human) (UniProt P10747); test: flow cytometry, Jurkat cells (CD28)
human CTLA-4 (human) [4] = target: human CTLA-4 (human) (UniProt P16410); test: flow cytometry, CHO cells stably expressing CTLA4
[5] = target: human PD-L1 (huPD-L1), on stably transduced CHO cells (human) (UniProt Q9NZQ7); test: flow cytometry on CHO cells stably expressing huPD-L1, 33.3 nM Fc fusion, PE anti-human Fc
[6] = target: human CTLA-4 (huCTLA4), on stably transduced CHO cells (human) (UniProt P16410); test: flow cytometry on CHO cells stably expressing huCTLA4, 33.3 nM Fc fusion, PE anti-human Fc
[7] = target: human PD-L1 (huPD-L1), on stably transduced CHO cells (human) (UniProt Q9NZQ7); test: flow cytometry on CHO/huPD-L1 cells; MFI relative to WT CD80 (CD80 WT IgV-Fc = 1.0)
[8] = target: CD28, endogenously expressed on Jurkat/IL2 reporter cells (human) (UniProt P10747); test: flow cytometry on Jurkat/IL2 reporter cells (endogenous CD28), 33.3 nM Fc fusion, PE anti-human Fc
[9] = target: CD28, endogenously expressed on Jurkat/IL2 reporter cells (human) (UniProt P10747); test: flow cytometry on Jurkat (CD28) cells; MFI relative to WT CD80 (CD80 WT IgV-Fc = 1.0)
[10] = target: human CTLA-4 (huCTLA4), on stably transduced CHO cells (human) (UniProt P16410); test: flow cytometry on CHO/huCTLA4 cells; MFI relative to WT CD80 (CD80 WT IgV-Fc = 1.0)
[11] = target: human PD-L1 (huPD-L1), on stably transduced CHO cells (human) (UniProt Q9NZQ7); test: flow cytometry; ratio of MFI on CHO/huPD-L1 cells to MFI on Jurkat (CD28) cells
CD28 (human) [12] = target: CD28 (human) (UniProt P10747); test: flow cytometry, HEK293 cells transfected with full-length human CD28, PE anti-human Fc
CD28 (human) [13] = target: CD28 (human) (UniProt P10747); remark: listed apart in the source
PD-L1 (human) [14] = target: PD-L1 (human) (UniProt Q9NZQ7); test: flow cytometry, transfected Expi293F cells
Target sequence in this assay (Q9NZQ7 19-290): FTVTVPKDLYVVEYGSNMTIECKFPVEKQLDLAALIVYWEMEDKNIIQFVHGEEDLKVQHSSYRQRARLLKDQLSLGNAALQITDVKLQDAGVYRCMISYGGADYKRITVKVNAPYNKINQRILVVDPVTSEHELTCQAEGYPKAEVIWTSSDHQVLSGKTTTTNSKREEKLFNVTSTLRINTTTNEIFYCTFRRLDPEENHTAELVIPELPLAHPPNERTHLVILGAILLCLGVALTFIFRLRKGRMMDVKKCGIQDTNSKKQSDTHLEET

human CTLA-4 (human) [15] = target: human CTLA-4 (human) (UniProt P16410); test: flow cytometry, transfected Expi293F cells
Target sequence in this assay (P16410 36-223): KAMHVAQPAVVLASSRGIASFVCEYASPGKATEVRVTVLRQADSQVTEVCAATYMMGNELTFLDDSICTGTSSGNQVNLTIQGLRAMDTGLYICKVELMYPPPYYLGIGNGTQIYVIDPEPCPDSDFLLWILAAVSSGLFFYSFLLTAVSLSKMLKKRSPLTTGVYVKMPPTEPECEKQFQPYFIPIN

PD-L1 (human) [16] = target: PD-L1 (human) (UniProt Q9NZQ7)
Target sequence in this assay (Q9NZQ7 19-290): as the sequence (Q9NZQ7 19-290) above

CD28 (human) [17] = target: CD28 (human) (UniProt P10747); remark: listed apart in the source
PD-L1 (human) [18] = target: PD-L1 (human) (UniProt Q9NZQ7); test: flow cytometry, HEK293 cells transfected with full-length human PD-L1, PE anti-human Fc
Target sequence in this assay (Q9NZQ7 19-290): as above

CD28 (human) [19] = target: CD28 (human) (UniProt P10747); test: flow cytometry, Jurkat cells (CD28); remark: listed apart in the source
CD28 (human) [20] = target: CD28 (human) (UniProt P10747); test: flow cytometry, HEK293 cells transfected with human CD28
PD-L1 (human) [21] = target: PD-L1 (human) (UniProt Q9NZQ7); test: flow cytometry, CHO cells expressing PD-L1
PD-L1 (human) [22] = target: PD-L1 (human) (UniProt Q9NZQ7); test: flow cytometry, CHO cells stably expressing PD-L1; remark: listed apart in the source
PD-L1 (human) [23] = target: PD-L1 (human) (UniProt Q9NZQ7); remark: listed apart in the source
Target sequence in this assay (Q9NZQ7 19-290): as above

CD28 (human) [24] = target: CD28 (human) (UniProt P10747); remark: listed apart in the source
PD-L1 (human) [25] = target: PD-L1 (human) (UniProt Q9NZQ7); remark: listed apart in the source
Target sequence in this assay (Q9NZQ7 19-290): as above

CD28 (human) [26] = target: CD28 (human) (UniProt P10747); remark: listed apart in the source
PD-L1 (human) [27] = target: PD-L1 (human) (UniProt Q9NZQ7); test: flow cytometry, MFI on CHO/PD-L1 over MFI on Jurkat (CD28)
Target sequence in this assay (Q9NZQ7 19-290): as above

human CTLA-4 (human) [28] = target: human CTLA-4 (human) (UniProt P16410); test: flow cytometry, CHO cells stably expressing CTLA4; remark: listed apart in the source
Target sequence in this assay (P16410 36-223): as the sequence (P16410 36-223) above

human CTLA-4 (human) [29] = target: human CTLA-4 (human) (UniProt P16410); test: flow cytometry, CHO cells expressing huCTLA4
Target sequence in this assay (P16410 36-223): as above

PD-L1 (human) [30] = target: PD-L1 (human) (UniProt Q9NZQ7); test: flow cytometry, CHO cells expressing huPD-L1
CD28 (human) [31] = target: CD28 (human) (UniProt P10747); test: flow cytometry, Jurkat/IL2 reporter cells (CD28), vs WT CD80 ECD-Fc (R&D)
CD28 (human) [32] = target: CD28 (human) (UniProt P10747); test: flow cytometry, Jurkat/IL2 reporter cells (CD28)
human CTLA-4 (human) [33] = target: human CTLA-4 (human) (UniProt P16410); test: flow cytometry, CHO cells expressing huCTLA4, vs WT CD80 ECD-Fc (R&D)
Target sequence in this assay (P16410 36-223): as above

CD28 (human) [34] = target: CD28 (human) (UniProt P10747); test: flow cytometry, HEK293 cells transfected with human CD28; negative control
PD-L1 (human) [35] = target: PD-L1 (human) (UniProt Q9NZQ7); test: flow cytometry, HEK293 cells transfected with human PD-L1; negative control
human CTLA-4 (human) [36] = target: human CTLA-4 (human) (UniProt P16410); test: flow cytometry, HEK293 cells transfected with human CTLA-4; negative control
Target sequence in this assay (P16410 36-223): as above

human PD-L1 (huPD-L1), on stably transduced CHO cells (human), sequence (Q9NZQ7 19-290): as the sequence (Q9NZQ7 19-290) above
human CTLA-4 (huCTLA4), on stably transduced CHO cells (human), sequence (P16410 36-223): as the sequence (P16410 36-223) above
WT CD80 ECD-Fc (inert) (Fc fusion), sequence (chain): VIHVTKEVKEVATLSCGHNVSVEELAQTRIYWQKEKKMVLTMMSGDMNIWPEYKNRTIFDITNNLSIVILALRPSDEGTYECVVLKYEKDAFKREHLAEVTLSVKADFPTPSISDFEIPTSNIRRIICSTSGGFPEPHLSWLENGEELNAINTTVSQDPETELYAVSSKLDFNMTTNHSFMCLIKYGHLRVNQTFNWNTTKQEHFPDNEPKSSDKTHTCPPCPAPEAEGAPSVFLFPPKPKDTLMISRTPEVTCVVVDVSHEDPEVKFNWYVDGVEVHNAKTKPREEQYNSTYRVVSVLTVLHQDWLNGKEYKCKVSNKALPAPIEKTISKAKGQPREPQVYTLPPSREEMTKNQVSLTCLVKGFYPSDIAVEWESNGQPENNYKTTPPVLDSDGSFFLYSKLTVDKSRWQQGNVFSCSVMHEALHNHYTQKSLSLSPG

Human IgG1 Isotype Control (antibody) showed a Relative Luminescence (RLU), Jurkat/IL2 reporter assay, at 100000 pM (CD28 (human) [1]) of 965 RLU, an MFI at 66.7 nM (PD-L1 (human) [2]) of 96.4 and an MFI at 66.7 nM (CD28 (human) [3]) of 73.2. The MFI at 66.7 nM (human CTLA-4 (human) [4]) was 69.4.

“variant CD80 IgV-Fc E35D/T41S/N48T (Fc fusion)” showed an MFI at 33.3 nM [5] of 2190 MFI, an MFI at 33.3 nM [6] of 30300 MFI and a Fold change to WT CD80 [7] of 31.2 fold. It also gave an MFI at 33.3 nM [8] of 72.4 MFI, a Fold change to WT CD80 [9] of 1.1 fold and a Fold change to WT CD80 [10] of 15.8 fold. The Ratio of PDL1:CD28 [11] was 30.

Substance WT CD80 ECD-Fc (inert) (Fc fusion) has an MFI at 66.6 nM (CD28 (human) [12]) of 3070 MFI and a Jurkat/IL2 reporter RLU at 50 nM, CHO/OKT3 aAPC without PD-L1 (CD28 (human) [13]) of 420 RLU.

“CD80 R29D/Y31L/Q33H/K36G/M38I/T41A/M43R/M47T/L85R/K89N/A91T/F92P/K93V/R94L/I118V/T120S/I127T/T130A/K169E/H188D ECD-Fc (Fc fusion)” gave an MFI (PD-L1 (human) [14]) of 110000 and an MFI (human CTLA-4 (human) [15]) of 2200.

“CD80 E35D/M47V/N48K/V68M/K89N IgV-Fc, delta linker (Fc fusion)” showed an IL2-luciferase reporter, fold increase in RLU over WT CD80-IgV-Fc at 5.0 nM (PD-L1 (human) [16]) of 2.63 fold and an IL2-luciferase reporter, fold increase in RLU over WT CD80-IgV-Fc at 5.0 nM (CD28 (human) [17]) of 2.63 fold.

With “variant CD80 IgV-Fc E35D/A71D (SEQ ID NO: 194) (Fc fusion)” the MFI at 22.2 nM (PD-L1 (human) [18]) was 13800 MFI.

WT CD80 ECD-Fc (Fc fusion) was tested, and the MFI at 33.3 nM (CD28 (human) [19]) was 46 MFI, the MFI at 33.3 nM (CD28 (human) [3]) was 31 MFI and the MFI at 33.3 nM (CD28 (human) [3]; record 2) was 30 MFI. It also gave an MFI at 66.6 nM (CD28 (human) [20]) of 24800, an MFI at 33.3 nM (PD-L1 (human) [21]) of 52 MFI and an MFI at 33.3 nM (PD-L1 (human) [22]) of 58 MFI.

Substance “CD80 IgV-Fc H18Y/E35D/M47L/Y53F/V68M/A71G (Fc fusion)” has an RLU at 5.0 nM: Fold Increase over WT CD80-IgV-Fc (PD-L1 (human) [23]) of 0.3 fold, an RLU at 5.0 nM: Fold Increase over WT CD80-IgV-Fc (CD28 (human) [24]) of 0.3 fold and a Fold change to WT CD80 (CD28 (human) [19]) of 11.6 fold. For the same substance, the MFI at 33.3 nM (CD28 (human) [19]) was 478 MFI, the RLU at 5.0 nM: Fold Increase over WT CD80-IgV-Fc (PD-L1 (human) [25]) was 5.7 fold and the RLU at 5.0 nM: Fold Increase over WT CD80-IgV-Fc (CD28 (human) [26]) was 5.7 fold. The Ratio of PDL1:CD28 (PD-L1 (human) [27]) was 20, the Fold change to WT CD80 (human CTLA-4 (human) [28]) was 18.7 fold and the MFI at 33.3 nM (human CTLA-4 (human) [28]) was 19500 MFI. It also gave a Fold change to WT CD80 (PD-L1 (human) [22]) of 135 fold and an MFI at 33.3 nM (PD-L1 (human) [22]) of 9580 MFI.

Work on “variant CD80 IgV-Fc E35D/M42V/M47V/E52D/L85Q (Fc fusion)” yielded an MFI at 33.3 nM (human CTLA-4 (human) [29]) of 226000 MFI, an MFI at 33.3 nM (PD-L1 (human) [30]) of 11900 MFI and a Fold change to WT CD80 (CD28 (human) [31]) of 0.07 fold. It also gave an MFI at 33.3 nM (CD28 (human) [32]) of 1290 MFI and a Fold change to WT CD80 (human CTLA-4 (human) [33]) of 1.44 fold.

Substance Fc only has an MFI at 66.6 nM (CD28 (human) [34]) of 2590, an MFI at 22.2 nM (PD-L1 (human) [35]) of 4740 and an MFI at 66.6 nM (human CTLA-4 (human) [36]) of 5960.
